Data reported in the supplement of paper PMC9170038.

Tested on: MS2 coat protein
Test: apparent KD of MS2 coat protein; designed switch direction (-1 OFF switch, 1 ON switch): 1; higher = weaker reporter binding
Method in brief: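 For each design, the apparent KD is the median over clusters of curves fitted to normalised cluster fluorescence. Clusters held RNA switches with common flanks, transcribed on Illumina chips by stalled E. coli RNA polymerase. These were titrated with SNAP-549-labelled MS2 coat protein, doubling from 0.7 or 1.5 nM to 3 µM, without input, with 200 uM small-molecule ligand, or with an oligonucleotide input.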

[1] = input ligand: microRNA oligo, concentration not stated
[2] = Eterna round: R95, input ligand: FMN 200 uM
[3] = Eterna round: R95, input ligand: microRNA oligo, concentration not stated
[4] = Eterna round: R95, input ligand: none

| Sequence | apparent KD of MS2 coat protein (input ligand: FMN 200 uM) [nM] | apparent KD of MS2 coat protein [1] [nM] | apparent KD of MS2 coat protein (input ligand: none) [nM] | apparent KD of MS2 coat protein [2] [nM] | apparent KD of MS2 coat protein [3] [nM] | apparent KD of MS2 coat protein [4] [nM] |
| --- | --- | --- | --- | --- | --- | --- |
| UUGCGGGCUUGAGGAUAUUGAGUACAUAUGUUUAACAUGAGGAUCACCCAUGUGGGUUGCGGUAUCGAGAAGGUAACUUCCUCC [salish99_SSNG2_r04_809] (Eterna round: R96, puzzle: Same State NG 2) | 169 | 124 | 163 |  |  |  |
| ACAUGAGAACGAGGAUAUUUUGUACCUACAUGUGACAUGAGGAUCACCCAUGUGGUAAGUAUGAGAAAGAAGGCGUAGAUAUGU [Equivalence 14 - Jieux - Same State NG 2] (Eterna round: R96, puzzle: Same State NG 2) | 21.9 | 30.6 | 29 |  |  |  |
| CGGUGAGAGACAGGAUAUCGAGCCUAACGAGGCCGAGAAGGGUCGCCCGAAGCGACCGACAUGAGGAUCACCCAUGUAGAAAGA [Eternabot solution 21] (Eterna round: R96, puzzle: Same State NG 1) | 34.2 | 30 | 40.4 |  |  |  |
| GGUCCAGCCUGAGCUGGACAAAAGCAUGUACAUGAGGAUCACCCAUGUUCAUGUACAAGCUUUUUGCUCGUCUUAAC [salish99_208a_r3_038] (puzzle: Sensor for hsa-mir-208a) |  |  |  | 530 | 16.9 | 648 |
| UUACUCAUGUAAGGAUAUGCAGCCGAAACGGCUGCAGAAGGUACUAUAAUACAUGAGGAUCACCCAUGUAAAAUAUAUAAAGUU [Mat - Same State NG 1 - JL mod - D96] (Eterna round: R96, puzzle: Same State NG 1) | 33.9 | 33.6 | 28.2 |  |  |  |
| GGACGUCAACUCAACAAUUAAACAUGAGGAUCACCCAUGUCACAGGAUAUGGAUCCUAAUUGGAUCCAGAAGGGUGAGACGUCC [Fiskers NG3ss - 42] (Eterna round: R96, puzzle: Same State NG 3) | 95.9 | 100 | 79.2 |  |  |  |
| AUAAAACAUGAGGAUCACCCAUGUCUACAAAGUCGAGGAUAUGGGCAAAUAAUAUAAGAACCAGAAGGCGAAUAAU [SS1 Teenbexe 1] (puzzle: Same State 1) |  |  |  | 54.2 | 565 | 14400 |
| GUUAAACAUGAGGAUCACCCAUGUCAAUGUAGUCGAGGAUAUGGGCAGCUAUGAGGCGUACUAGAAGGCGAAGAGU [Mat - Same State 1 - Mod of JL - D12] (puzzle: Same State 1) |  |  |  | 106 | 196 | 280 |
| CCGCUAAAUGGAGGAUAUGGAGCCUUAUUGGCUCCAGAAGGUCAAAACAUGAGGAUCACCCAUGUGCGGCGGUCUAAUGACCGA [Eli NG1ss - 48] (Eterna round: R96, puzzle: Same State NG 1) |  | 122 |  |  |  |  |
| UAGUUACUAUCUCAGGAUAUCAUGUCAAAGACAUGAGGAUCACCCAUGUACCAGGAAACUGGUUAUGAGAAGGGAGAUAGUAACA [Mat - Same State 2 - Mod - D56] (puzzle: Same State 2) |  |  |  | 78.7 | 34.2 | 38.6 |
| AAUUAAUUAAUACAUGAGGAUCACCCAUGUAAUUAUUAGAUCAAGGAUAUCAGCUCGAAUAGAGCUGAGAAGGUGAUCACAUGU [SSNG3/18-A1] (Eterna round: R96, puzzle: Same State NG 3) |  | 259 |  |  |  |  |
